Reference: paper PMC8169943

Legend:
[1] = biological target: AdeS full cytoplasmic domain (HAMP-DHp-CA) (Acinetobacter baumannii); test: SEC
[2] = biological target: AdeS full cytoplasmic domain (HAMP-DHp-CA) (Acinetobacter baumannii); test: SAXS
[3] = biological target: AdeS histidine kinase transmitter domain (DHp-CA) (Acinetobacter baumannii); test: SEC
[4] = biological target: AdeS histidine kinase transmitter domain (DHp-CA) (Acinetobacter baumannii); test: SAXS
[5] = substrate: Nc1ncnc2c1ncn2[C@@H]1O[C@H](COP(=O)(O)OP(=O)(O)OP(=O)(O)O)[C@@H](O)[C@H]1O; test: purified protein; conditions: autophosphorylation; hexameric cytoplasmic domain

Q: Which results are given for “AdeS full cytoplasmic domain (HAMP-DHp-CA) (domain or fragment)”?
A: stoichiometry N [1]: 6; stoichiometry N [2]: 6

Q: “AdeS histidine kinase transmitter domain (DHp-CA) (domain or fragment)” was tested. Which stoichiometry N [3] did it give?
A: 2

Q: What about the stoichiometry N [4] of the same molecule?
A: 2

B1: AdeS cytoplasmic domain (HAMP-DHp-CA) (Acinetobacter baumannii) (protein)
chain: KRFIVPINFLAEAAKKISHGDLSARAYDNRIHFAEMSELLYNFNDMAQKLEVSVKNAQVWNAAIAHELRTPITILQGRLQGIIDGVFKPDEVLFKSLLNQVEVLSHLVEDLRTLSLVENQQLRLNYELFDFKAVVEKVLKAFEDRLDQAKLVPELDLTSTPVYCDRRRIEQVLIALIDNAIRYSHAGKLKISSEVVSQNWILKIEDEGPGIATEFQDDLFKPFFRLEESRNKEFGGTGLGLAVVHAIIVALKGTIQYSNQGSKSIFTIKISMNN
Q: How did the Km [5] turn out when B1 was run?
A: 5.25 ± 0.20 µM
